As usually defined, the Kd is the equilibrium constant for the complex coming apart. As a reminder, the koff is a measure of how fast the partners let go of each other. High values mean fast dissociation, low ones slow dissociation. In general, kon refers to the rate constant with which the complex forms. Higher therefore signals fast association.

Where no end group is shown, it is not given here.

The target in experiment [1] is T1, Peptide 3p18 (NPY C terminus with similar a.a. substitutions).
T1 construct: Poly-alanine 17-mer ending QRF-amide
T1 peptide: AAAAAAAAAAAAAAQRF-NH2
The experiment in a line: SPR (Biacore), FIGS. 11A and 11B. The procedure:
(§1) Epitope mapping and determination of the affinity of MAb 5E12-B7 was also performed using a Biacore 2000 unit (GE Healthcare). Briefly, purified MAb 5E12-B7 was biotinylated as described above, except that the biotinylation reaction was performed at a 20:1 molar ratio of biotin:Ig. An SA-Chip (GE Healthcare) was docked into the Biacore 2000 unit and HBS-EP buffer (GE) was allowed to run over all 4 flow channels at 40 μL/min until signal had stabilized. The flow path was then switched to channel 4 only and HBS-EP containing 60 μg/mL biotinylated antibody was injected at 40 μL/min for 5 min to couple MAb 5E12-B7 to the chip via biotin-streptavidin binding. HBS-EP buffer was then run over channel 4 at 40 μL/min for over 30 min to remove all uncoupled Ig from the Biacore system then the flow path was changed to pass through all 4 flow channels. Association and dissociation of the peptides in Table 3 was measured using the Biacore Application Wizard. In each case, a baseline was established by passing HBS-EP over all 4 channels at 40 μL/min for 1 min before association was measure by injection of peptide (diluted to 1, 10, 100 or 1000 nM in HBS-EP) at 40 μL/min for 5 min. Dissociation was measured by allowing HBS-EP to pass over all 4 channels at 40 μL/min for 30 min. The kd, kₐ and KD were determined for each peptide by curve fitting using the BIAevalutation software.
Background: SPR reads the build-up and loss of mass on a sensor chip optically.

Experiment [2] addresses T2, Peptide 3p17 (NPY C terminus with similar a.a. substitutions).
T2 construct: Poly-alanine 17-mer ending QRH-amide
T2 peptide: AAAAAAAAAAAAAAQRH-NH2
Briefly: SPR (Biacore), FIGS. 11A and 11B. The procedure:
as §1

Experiment [3] addresses T3, Peptide 3p19 (NPY C terminus with similar a.a. substitutions).
T3 construct: Poly-alanine 17-mer ending QRW-amide
T3 peptide: AAAAAAAAAAAAAAQRW-NH2
The experiment in a line: SPR (Biacore), FIGS. 11A and 11B. The procedure: as §1

For another experiment, the target named is T4, NPY (mouse NPY, Phoenix) (mouse, C-terminal amide (-NH2)).
T4 construct: 36-residue whole peptide bought from Phoenix Peptides; also called mNPY; neuropeptide Y
The experiment in a line: BLI (Octet RED96), biotinylated MAb on SA sensors, peptide in solution. As to the method: (§2) Affinity of MAb to peptides NPY, mPYY, hPYY, mPP and hPP were measured using an OCTET RED96 system with Octet SA sensors (ForteBio). Briefly, black 96-well plates were prepared with columns containing 200 μL/well of all reagents required for determination of affinity. In general, Octet SA sensors were first placed in wells containing Octet running buffer for 60 seconds to establish a baseline. Sensors were then transferred to wells containing 50 μg/mL biotinylated 5E12-B7 for 480 seconds to load the SA coated tips. Sensors were then regenerated by 3×5 second incubations in Regeneration Buffer (10 mM Glycine, pH 2) followed each time by a 5 second incubation in Octet running buffer. Sensors were then placed in fresh running buffer for 60 seconds to establish a baseline. Association was then measured by incubation the sensors for 10 min in 8 wells containing a serial dilution of peptide (0, 0.33 to 243 nM for NPY and PYY peptides, 0, 9 to 6560 nM for PP peptides). The sensors were then transferred to wells containing Octet running buffer for 15 min to measure dissociation of the peptides. The regeneration step was repeated before measurement of association/dissociation with a different peptide. All peptide measurements were performed in duplicate. The kd, kₐ and KD were determined for each peptide using the accompanying Octet software (Bioforte).
(§3) Affinity parameters of MAb 5E12-B7 were measured against peptides NPY, mPYY, hPYY, mPP and hPP using an Octet Red system (ForteBio). Streptavadin sensors were loaded with biotinylated MAb 5E12-B7. Association and dissociation rates were measured by incubation of the sensors in wells containing serial dilutions of the peptides, followed by incubation in assay buffer.
Background: In BLI a coated tip is dipped into the sample, and binding shifts an interference pattern.

The next experiment addresses T5, human PYY (Phoenix) (human, C-terminal amide (-NH2)).
T5 construct: 36-residue whole peptide; also called hPYY
The description is as above. As to the method:
as §2, §3

T5 sequence (peptide, as listed by the source): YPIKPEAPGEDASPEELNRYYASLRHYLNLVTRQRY

B1: MAb 5E12-B7 (antibody, V domains shown)
VH: QVQLQHPGTEVVKPGASVKLSCKASGYTFTNYWMHWVKQRPGQGLEWIGNIDPSNGGTNYNEKFKSKATLTVDKSSSTAYMQLSSLTSEDSAVYYCASFAYWGQGTLVTVSA
VL: DIQMTQSPASLSASVGETVTITCRASGNIHNYLAWYQQKQGKSPQLLVYNAKTLADGVPSRFSGSGSGTQYSLKISSLRPEDFGSYYCQHFWSPPFTFGSGTKLEIK
notes: Biotinylated for the Biacore and Octet assays; also called PYY/NPY antibody (5E12); anti-NPY/PYY antibody 5E12
As for B1, the binding result in experiment [1], in experiment [2] and in experiment [3] was “no binding” throughout. Also, the dissociation constant Kd in the experiment with NPY (mouse NPY, Phoenix) was 4.7 nM; in the experiment with human PYY (Phoenix), 2.17 nM. Moreover, the off-rate constant (koff) with NPY (mouse NPY, Phoenix) was 0.000429 s⁻¹; in the experiment with human PYY (Phoenix) it was 0.000385 s⁻¹. For the same molecule, the on-rate constant (kon) was found to be 92600 M⁻¹ s⁻¹ with NPY (mouse NPY, Phoenix) and 179000 M⁻¹ s⁻¹ with human PYY (Phoenix).

The record behind these values is patent publication US20150307599A1 (GARVAN INSTITUTE OF MEDICAL RESEARCH, published 2015).
